Patent US20240116985A1 (published 2024)
Starred links: 1 amine or outer side, 2 acyl side, 3 side chain; linkers in the order of their positions; H or OH if unused. Positions of bridges follow the written chain, without caps; N, C: chain ends. Non-standard residues stand in square brackets, D forms with d. Primed or numbered codes have the meaning given here. PyrS2″ = (S)-3-amino-1-((pent-4-en-1-yloxy)carbonyl)pyrrolidine-3-carboxylic acid (stapling residue), C=CCCCOC(=O)N1CC[C@@](N[*:1])(C(=O)[*:2])C1; B5(17) = 2,2-bis(4-pentenyl)glycine = 2-amino-2-(pent-4-en-1-yl)hept-6-enoic acid, stitching residue, C=CCCCC(CCCC=C)(N[*:1])C(=O)[*:2]; B5(4) = 2,2-bis(4-pentenyl)glycine = 2-amino-2-(pent-4-en-1-yl)hept-6-enoic acid (stitching residue), C=CCCCC(CCCC=C)(N[*:1])C(=O)[*:2]; B5(6) = 2-amino-2-(pent-4-en-1-yl)hept-6-enoic acid (bis(4-pentenyl)glycine), stitching residue, C=CCCCC(CCCC=C)(N[*:1])C(=O)[*:2]; B5(3) = 2,2-bis(4-pentenyl)glycine (stitching residue), C=CCCCC(CCCC=C)(N[*:1])C(=O)[*:2]; B5 = 2-amino-2-(pent-4-en-1-yl)hept-6-enoic acid, C=CCCCC(CCCC=C)(N[*:1])C(=O)[*:2]; Phe(3,4-F2) = N[C@@H](Cc1ccc(F)c(F)c1)C(=O)O; Phe(3-F) = N[C@@H](Cc1cccc(F)c1)C(=O)O; Phe(4-F) = N[C@@H](Cc1ccc(F)cc1)C(=O)O; Bta = N[C@@H](Cc1csc2ccccc12)C(=O)O; αAllylPro = C=CC[C@@]1(C(=O)O)CCCN1; tBuAla = CC(C)(C)C[C@H](N)C(=O)O; 2Pal = N[C@@H](Cc1ccccn1)C(=O)O; 3Pal = N[C@@H](Cc1cccnc1)C(=O)O; 3Thi = N[C@@H](Cc1ccsc1)C(=O)O; S8 = C=CCCCCCC[C@](C)(N)C(=O)O

T1: full-length beta-Catenin (Uniprot ID P35222) (Homo sapiens (Human), UniProt P35222 1-781)
T1 construct: Used full-length in the fluorescence polarization probe solution (10 nM); also called bCat; B-Catenin
T1 sequence: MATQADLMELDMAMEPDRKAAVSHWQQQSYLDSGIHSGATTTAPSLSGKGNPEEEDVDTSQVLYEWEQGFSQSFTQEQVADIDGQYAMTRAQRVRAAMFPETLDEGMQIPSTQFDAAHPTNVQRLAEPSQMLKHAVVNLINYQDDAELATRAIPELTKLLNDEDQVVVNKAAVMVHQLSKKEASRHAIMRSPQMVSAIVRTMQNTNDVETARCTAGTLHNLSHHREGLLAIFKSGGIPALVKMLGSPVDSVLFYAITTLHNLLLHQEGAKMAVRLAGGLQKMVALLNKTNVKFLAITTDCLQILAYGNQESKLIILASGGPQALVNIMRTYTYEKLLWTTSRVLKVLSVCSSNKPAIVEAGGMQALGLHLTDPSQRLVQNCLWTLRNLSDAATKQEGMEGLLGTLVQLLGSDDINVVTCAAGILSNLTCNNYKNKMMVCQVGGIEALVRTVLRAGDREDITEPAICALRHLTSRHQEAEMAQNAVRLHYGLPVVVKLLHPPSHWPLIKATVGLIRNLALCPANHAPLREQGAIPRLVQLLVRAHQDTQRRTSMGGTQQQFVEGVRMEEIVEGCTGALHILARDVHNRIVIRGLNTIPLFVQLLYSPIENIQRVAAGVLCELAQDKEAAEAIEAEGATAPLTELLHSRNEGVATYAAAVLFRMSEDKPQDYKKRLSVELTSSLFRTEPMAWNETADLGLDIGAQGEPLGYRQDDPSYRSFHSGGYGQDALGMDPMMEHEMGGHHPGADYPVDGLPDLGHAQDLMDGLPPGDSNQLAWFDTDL

T2: full-length beta-Catenin (Uniprot ID P35222) (Homo sapiens (Human), UniProt P35222 1-781)
T2 construct: The assay protocols call it full-length; also called B-Catenin; bCat
T2 sequence: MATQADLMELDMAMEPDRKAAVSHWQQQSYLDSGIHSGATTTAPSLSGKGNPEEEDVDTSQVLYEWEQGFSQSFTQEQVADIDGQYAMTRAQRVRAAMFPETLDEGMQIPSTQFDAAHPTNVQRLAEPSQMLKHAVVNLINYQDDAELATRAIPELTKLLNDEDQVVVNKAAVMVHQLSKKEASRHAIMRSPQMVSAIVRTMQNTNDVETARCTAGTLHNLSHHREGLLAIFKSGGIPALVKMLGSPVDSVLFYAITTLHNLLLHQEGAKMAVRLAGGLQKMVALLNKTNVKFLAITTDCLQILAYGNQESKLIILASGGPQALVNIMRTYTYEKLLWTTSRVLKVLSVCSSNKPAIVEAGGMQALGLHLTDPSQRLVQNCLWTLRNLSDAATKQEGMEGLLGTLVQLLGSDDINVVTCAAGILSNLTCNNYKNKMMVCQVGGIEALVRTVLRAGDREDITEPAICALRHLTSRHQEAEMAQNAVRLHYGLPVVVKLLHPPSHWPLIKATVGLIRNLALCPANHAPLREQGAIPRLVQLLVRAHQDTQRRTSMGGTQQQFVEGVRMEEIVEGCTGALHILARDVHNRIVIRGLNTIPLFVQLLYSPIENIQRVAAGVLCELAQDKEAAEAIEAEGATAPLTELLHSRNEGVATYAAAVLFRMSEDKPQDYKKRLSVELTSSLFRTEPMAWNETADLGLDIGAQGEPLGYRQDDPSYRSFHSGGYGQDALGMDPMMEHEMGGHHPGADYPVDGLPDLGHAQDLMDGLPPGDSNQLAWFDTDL

T3: B-cat-Halo (beta-catenin HaloTag fusion expressed in HEK293 cells) (Homo sapiens (Human), UniProt P35222 1-781)
T3 sequence: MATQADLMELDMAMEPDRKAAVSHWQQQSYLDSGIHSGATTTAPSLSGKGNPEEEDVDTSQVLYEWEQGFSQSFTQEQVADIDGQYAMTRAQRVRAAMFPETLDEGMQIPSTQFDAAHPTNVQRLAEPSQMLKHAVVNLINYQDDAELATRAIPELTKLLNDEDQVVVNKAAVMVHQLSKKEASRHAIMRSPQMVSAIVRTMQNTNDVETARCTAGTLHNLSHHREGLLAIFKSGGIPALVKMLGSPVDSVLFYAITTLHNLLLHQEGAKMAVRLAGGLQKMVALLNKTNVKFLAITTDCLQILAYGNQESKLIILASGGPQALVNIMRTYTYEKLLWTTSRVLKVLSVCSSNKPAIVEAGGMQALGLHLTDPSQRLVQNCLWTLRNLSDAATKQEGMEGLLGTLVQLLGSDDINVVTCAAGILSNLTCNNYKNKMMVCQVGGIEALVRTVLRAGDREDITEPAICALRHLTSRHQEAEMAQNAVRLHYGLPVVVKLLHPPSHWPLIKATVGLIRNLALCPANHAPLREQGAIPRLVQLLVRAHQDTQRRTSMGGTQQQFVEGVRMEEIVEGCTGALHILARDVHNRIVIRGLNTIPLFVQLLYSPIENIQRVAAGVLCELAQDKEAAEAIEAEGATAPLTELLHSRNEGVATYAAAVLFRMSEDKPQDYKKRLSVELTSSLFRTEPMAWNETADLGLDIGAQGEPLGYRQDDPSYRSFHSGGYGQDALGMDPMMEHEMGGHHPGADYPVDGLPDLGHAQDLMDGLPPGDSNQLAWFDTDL


Experiments:
[1] = molecular target: T1, full-length beta-Catenin (Uniprot ID …); assay: fluorescence polarization competition; displacement of 5FAM-TCF4(10-53) from full-length beta-catenin
Experimental: (§1) The plate was incubated protected from light for 60 minutes at 20° C. prior to read. Reads were performed on a CLARIOstar plate reader (BMG Labtech) in duplicate, and data were fitted to a 1:1 binding model with hill slope using an in-house script. All provided concentrations are final concentrations.

[2] = molecular target: T2, full-length beta-Catenin (Uniprot ID …); assay: AlphaScreen competition; full-length beta-catenin with biotin-labelled TCF4 10-53 peptide as competitor
Experimental: as §1, with “Equal volume of the titrated peptide was added to the” for “The”, “and” for “was”, “incubated for 15 minutes at 20° C. Then 4 uL of donor and 4 uL acceptor beads at 10 ug/mL were added to the plate, for a 16 uL reaction pool and” for “incubated”

[3] = molecular target: T2, full-length beta-Catenin (Uniprot ID …); assay: fluorescence polarization competition; full-length beta-catenin with 5FAM-labelled TCF4 10-53 peptide as competitor
Experimental: as §1

[4] = molecular target: T3, B-cat-Halo (beta-catenin HaloTag fusion …); assay: cell-based or functional assay

EC50 [2] [µM] | EC50 [3] [µM] | Binder | other results
0.318 | 5 | Ac-[αAllylPro]DA[B5(4)]DDAA[Phe(4-F)]V[S8]FWQ-NH2 (staple 1-4, 4-11, Stapled (stitched) peptide; also called Ac-PL3-Asp-Ala-B5-Asp-Asp-Ala-Ala-4FF-Val-S8-Phe-Trp-Gln-NH2) [I-266] | 
0.364 | 5 | Ac-[αAllylPro]DA[B5(4)]DDAA[Phe(3-F)]V[S8]FWQ-NH2 (staple 1-4, 4-11; not fully specified; printed as Ac-PL3-Asp-Ala-B5-Asp-Asp-Ala-Ala-3FF-Val-S8-Phe-Trp-Gln-NH2, Stapled (stitched) peptide; also called Ac-PL3-Asp-Ala-B5-Asp-Asp-Ala-Ala-3FF-Val-S8-Phe-Trp-Gln-NH2) [I-264] | 
0.194 | 3.76 | Ac-[αAllylPro]DA[B5(4)]DDAA[Phe(3-F)]V[S8]FWQ-NH2 (staple 1-4, 4-11; not fully specified; printed as Ac-PL3-Asp-Ala-B5-Asp-Asp-Ala-Ala-3FF-Val-S8-Phe-Trp-Gln-NH2, Stapled (stitched) peptide; also called Ac-PL3-Asp-Ala-B5-Asp-Asp-Ala-Ala-3FF-Val-S8-Phe-Trp-Gln-NH2) [I-265] | 
0.859 | 5 | XDAXDDAAFVXXWQ (not fully specified; N-terminal Ac; PL3 at 1; B5 at 4; S8 at 11; 1NapA at 12; C-terminal NH2; staples PL3(1)-B5(4) and B5(4)-S8(11) by olefin metathesis, Stapled (stitched) peptide; also called Ac-PL3-Asp-Ala-B5-Asp-Asp-Ala-Ala-Phe-Val-S8-1NapA-Trp-Gln-NH2) [I-275] | 
0.788 | 5 | Ac-[αAllylPro]DA[B5(17)]D[3Pal]AAFV[S8]FWQ-NH2 (staple 1-4, 4-11, Stapled (stitched) peptide; also called Ac-PL3-Asp-Ala-B5-Asp-3PyrA-Ala-Ala-Phe-Val-S8-Phe-Trp-Gln-NH2) [I-271] | 

The remaining lines, values behind:

Binder | EC50 [2] [µM] | EC50 [3] [µM] | other results
Ac-[αAllylPro]DI[B5(6)]DDAAFN[S8]F[Bta]H-NH2 (staple 1-4, 4-11; also: separate HPLC peak/isomer composition from I-469, Stapled peptide composition) [I-470] |  |  | EC50 [1]: 0.011 µM
XDIXDEAAFNXFXQ (not fully specified; Ac-PL3-Asp-aIle-B5-Asp-Glu-Ala-Ala-Phe-Asn-S8-Phe-BztA-Gln-NH2; N-terminal acetyl, C-terminal amide; stapled PL3-B5 and B5-S8, Stapled peptide composition) [I-475] |  |  | EC50 [1]: 0.102 µM
XDAXDDAAFVXFW (not fully specified; N-terminal Ac; PL3 at 1; B5 at 4; S8 at 11; C-terminal NH2; staples PL3(1)-B5(4) and B5(4)-S8(11) by olefin metathesis, Stapled (stitched) peptide; also called Ac-PL3-Asp-Ala-B5-Asp-Asp-Ala-Ala-Phe-Val-S8-Phe-Trp-NH2) [I-289] | 0.626 | 5 | 
Ac-[αAllylPro]D[tBuAla][B5]DDAAFN[PyrS2″][3Thi][Bta]S-NH2 (staple 1-4, 4-11) [I-815] |  |  | NanoBRET IC50 [4]: 11.8 µM
XDAXDDAAFVXFWQ (not fully specified; N-terminal Ac; PL3 at 1; B5 at 4; S8 at 11; 34FF at 12; C-terminal NH2; staples PL3(1)-B5(4) and B5(4)-S8(11) by olefin metathesis, Stapled (stitched) peptide; also called Ac-PL3-Asp-Ala-B5-Asp-Asp-Ala-Ala-Phe-Val-S8-34FF-Trp-Gln-NH2) [I-263] | 0.864 | 5 | 
Ac-[αAllylPro]D[tBuAla][B5]DDAAFN[PyrS2″][3Thi][Bta]HA-NH2 (staple 1-4, 4-11) [I-820] |  |  | NanoBRET % inh @ 10 uM [4]: 30.8%
Ac-[αAllylPro]D[tBuAla][B5(3)]DDAAFT[PyrS2″][3Thi][Bta]Q-NH2 (staple 1-4, 4-11) [I-809] |  |  | NanoBRET IC50 [4]: 11.7 µM
Ac-[αAllylPro]DA[B5(17)]DDAA[Phe(3,4-F2)]V[S8]FWQ-NH2 (staple 1-4, 4-11, Stapled (stitched) peptide; also called Ac-PL3-Asp-Ala-B5-Asp-Asp-Ala-Ala-34FF-Val-S8-Phe-Trp-Gln-NH2) [I-267] | 0.62 | 5 | 
Ac-[αAllylPro]D[tBuAla][B5]DDAAFN[PyrS2″][3Thi][Bta]QA-NH2 (staple 1-4, 4-11) [I-819] |  |  | NanoBRET % inh @ 10 uM [4]: 37.8%
Ac-[αAllylPro]DA[B5(17)]D[2Pal]AAFV[S8]FWQ-NH2 (staple 1-4, 4-11, Stapled (stitched) peptide; also called Ac-PL3-Asp-Ala-B5-Asp-2PyrA-Ala-Ala-Phe-Val-S8-Phe-Trp-Gln-NH2) [I-270] | 0.835 | 5 | 
Ac-[αAllylPro]D[tBuAla][B5]DDAAFN[PyrS2″][3Thi][Bta][dT]-NH2 (staple 1-4, 4-11) [I-817] |  |  | NanoBRET % inh @ 10 uM [4]: 45%; NanoBRET IC50 [4]: 6.8 µM
XDAXDDAAFVXXWQ (not fully specified; N-terminal Ac; PL3 at 1; B5 at 4; S8 at 11; 1NapA at 12; C-terminal NH2; staples PL3(1)-B5(4) and B5(4)-S8(11) by olefin metathesis, Stapled (stitched) peptide; also called Ac-PL3-Asp-Ala-B5-Asp-Asp-Ala-Ala-Phe-Val-S8-1NapA-Trp-Gln-NH2) [I-276] | 0.329 | 3.43 | 
